The source of these data is article PMC4624332 (Cell, 2015).

The target of assay [1] is Tse6_(265-CT) (P. aeruginosa) (UniProt Q9I739). The experiment in a line: ITC. (Isothermal titration calorimetry measures the heat released or taken up as one component is titrated into another.)
The target of assay [2] is EF-Tu^EC•GDP (E. coli EF-Tu, GDP-bound), purified for ITC (E. coli, UniProt P0CE47 2-393). The experiment in a line: ITC.
For assay [3], the target named is EF-Tu^PA•GDP (P. aeruginosa EF-Tu, GDP-bound), purified (P. aeruginosa, UniProt P09591 1-397). Description: ITC.
EF-Tu^PA•GDP (P. aeruginosa EF-Tu, GDP-bound), purified, sequence (P09591 whole entry): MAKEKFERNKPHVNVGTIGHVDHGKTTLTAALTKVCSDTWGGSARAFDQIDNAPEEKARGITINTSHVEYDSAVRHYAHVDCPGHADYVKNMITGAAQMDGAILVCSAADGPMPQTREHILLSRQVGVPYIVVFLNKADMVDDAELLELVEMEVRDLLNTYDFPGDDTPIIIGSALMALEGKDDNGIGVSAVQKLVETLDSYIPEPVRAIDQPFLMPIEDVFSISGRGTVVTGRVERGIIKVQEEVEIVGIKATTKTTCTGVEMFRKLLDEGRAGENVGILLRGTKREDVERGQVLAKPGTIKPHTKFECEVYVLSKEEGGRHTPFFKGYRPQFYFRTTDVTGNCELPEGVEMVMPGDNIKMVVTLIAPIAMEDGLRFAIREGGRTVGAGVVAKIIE
In assay [4] the target is C-terminally octa-histidine-tagged Tse6 (full-length toxin) (P. aeruginosa, UniProt Q9I739 1-430). The experiment in a line: negative-stain electron microscopy.

EF-Tu^EC•GDP (E. coli EF-Tu, GDP-bound), purified for ITC, sequence (P0CE47 2-393): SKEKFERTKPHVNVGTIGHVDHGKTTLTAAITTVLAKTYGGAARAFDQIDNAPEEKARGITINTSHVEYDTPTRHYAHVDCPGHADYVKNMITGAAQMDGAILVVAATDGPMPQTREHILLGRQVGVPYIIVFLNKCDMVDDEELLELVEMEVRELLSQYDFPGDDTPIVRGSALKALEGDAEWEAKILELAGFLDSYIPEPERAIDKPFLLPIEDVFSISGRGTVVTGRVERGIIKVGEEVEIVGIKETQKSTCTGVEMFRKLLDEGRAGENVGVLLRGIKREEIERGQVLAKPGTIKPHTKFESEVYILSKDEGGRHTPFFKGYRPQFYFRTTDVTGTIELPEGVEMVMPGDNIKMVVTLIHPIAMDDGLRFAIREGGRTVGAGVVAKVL

The molecule “EF-Tu with the antibiotic Aurodox (locked into its GTP-bound conformation) (from UniProt P09591 1-397) (natural protein)” showed a fold reduction of the affinity with Aurodox against EF-Tu•GDP in assay [1] of 10 fold.

B1: Tse6_(265-CT) (domain or fragment)
chain: QRRAYLNNKFGRSGNLDHDINYRGNRETAAKFFKSKDIDPADAESYMNGLDFNHPVRVETLAPGKNLWQYQSPGAPQGNWYTLSPRVQPTELGINPMGTNRAANTIEPKVLNSYRTTQKVEVLRSTAAPTDDFWSVKGQSYPAKGGAQQLFSNEKGSFGLLPREGS
Usually Kd stands for the constant that tells how readily two partners part at equilibrium. With B1, the results for the Kd in assay [2] and in assay [3] were 0.081 µM and 0.023 µM, respectively.

B2: EagT6, recombinant, in the purified Tse6 complex (natural protein)
chain: MTLYRLHEADLEIPDAWQDQSINIFKLPASGPAREASFVISRDASQGDAPFADYVARQLENAEKQLPGFKLHKRWDINIHGHAAVLLDYQWQREGRDLMLRQVFIERRPAVLITTLTTTPADLPHHEPAWKQAMQTLVPRPTPS
For B2, the binding result in assay [4] is recorded as “binds”.
